# Measurements as given in article PMC5647543, “The Two-State Prehensile Tail of the Antibacterial Toxin Colicin N” (Biophysical Journal, 2017).
# T1: ColN_(90–387) (ColN-RP), receptor binding and pore forming domains of colicin N (Escherichia coli, UniProt P08083 90-387)
# T1 construct: In PDB 1A87 the first resolved residue is S91; source: purified as previously described (20, 26); 15N-labelled protein from bacteria grown in M9 minimal medium with 15NH4Cl; not shown: His6 (-SSHHHHHH), C-terminal, kept
# T1 sequence (looked up): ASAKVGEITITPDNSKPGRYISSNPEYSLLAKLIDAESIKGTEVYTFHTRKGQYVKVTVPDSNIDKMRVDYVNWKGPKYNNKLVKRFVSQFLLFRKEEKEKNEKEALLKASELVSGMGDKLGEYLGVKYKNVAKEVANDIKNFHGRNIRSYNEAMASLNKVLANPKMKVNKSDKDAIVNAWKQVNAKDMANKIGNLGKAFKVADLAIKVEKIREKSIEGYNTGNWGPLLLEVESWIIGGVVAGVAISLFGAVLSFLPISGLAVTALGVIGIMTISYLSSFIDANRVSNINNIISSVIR
# B1: ColN_(1–90) (ColN-T), isolated translocation domain of colicin N (domain or fragment)
# chain: MGSNGADNAHNNAFGGGKNPGIGNTSGAGSNGSASSNRGNSNGWSWSNKPHKNDGFHSDGSYHITFHGDNNSKPKPGGNSGNRGNNGDGA
# notes: colicin N (ColN), residues 1-90, the intrinsically disordered translocation (T-) domain; the whole toxin has 387 residues; 98-residue construct: residues 1-90 followed directly by Ser2His6; Used unlabelled in the NMR mixing experiment; also called T-domain; ColN-T(1-90)-SSHHHHHH; source: purified as previously described (20, 26), dialysed into 50 mM sodium phosphate, pH 7.6, 300 mM NaCl; not …
# Target: T1, ColN_(90–387) (ColN-RP), receptor …
# Test: NMR titration; free unlabelled ColN-T added to 15N-labelled ColN-RP; 15N-1H HSQC chemical shift changes; spectra at 15°C
# Conditions: both partners purified
binder,measurement,value
B1,binding result,binds
